These results are taken from article PMC9881131, “ZNF212 promotes genomic integrity through direct interaction with TRAIP” (Nucleic Acids Research, 2023).

The target in the test is T1, recombinant HA-NEIL3 (human, UniProt Q8TAT5 1-605).
T1 construct: NEIL3, human (hNEIL3), subcloned into a pET19b-derived plasmid; The methods tell 3x FLAG (N-terminus) and 10x His (C-terminus); the results call the purified protein HA-NEIL3; Which tags stood on the protein in the assay is not clear; also called hNEIL3; source: E. coli BL21 (DE3), purified (Ni-NTA, Q column, gel filtration)
T1 sequence (looked up): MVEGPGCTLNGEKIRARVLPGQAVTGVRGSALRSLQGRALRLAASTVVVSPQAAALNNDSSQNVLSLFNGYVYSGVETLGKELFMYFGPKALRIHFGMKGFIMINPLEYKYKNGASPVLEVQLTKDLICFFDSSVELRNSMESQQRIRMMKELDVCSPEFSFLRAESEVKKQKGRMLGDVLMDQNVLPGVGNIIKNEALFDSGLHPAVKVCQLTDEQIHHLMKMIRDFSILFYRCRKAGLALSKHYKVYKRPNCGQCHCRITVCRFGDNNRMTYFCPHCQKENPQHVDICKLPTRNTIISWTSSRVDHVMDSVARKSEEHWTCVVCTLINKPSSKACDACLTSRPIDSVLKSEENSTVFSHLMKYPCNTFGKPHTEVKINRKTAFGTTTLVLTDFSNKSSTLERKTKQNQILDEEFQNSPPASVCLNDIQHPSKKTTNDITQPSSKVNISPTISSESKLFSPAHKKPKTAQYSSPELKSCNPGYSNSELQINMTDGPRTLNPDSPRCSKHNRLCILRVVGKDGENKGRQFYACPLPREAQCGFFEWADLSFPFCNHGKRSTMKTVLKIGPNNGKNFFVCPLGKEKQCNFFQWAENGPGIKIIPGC
In words: co-IP; purified recombinant Flag-ZNF212 (or ZNF212-C) and HA-NEIL3; immunoprecipitation with increasing amounts of HA-NEIL3. The note with it: both partners purified.

B1: recombinant Flag-ZNF212 (natural protein)
chain: not shown
notes: ZNF212, human, 3X-Flag tagged coding region cloned in pCold TF DNA; The host strain (E. coli BL21 (DE3)) is stated for hNEIL3 only; the later purification steps are told for hNEIL3 only; also called hZNF212; source: pCold TF DNA vector, cells grown in LB broth at 15°C, purified (Ni-NTA)
As for B1, the binding result is on record as “binds”.
